# Results from the supplement of paper PMC9112550, “Optimization of the antimicrobial peptide Bac7 by deep mutational scanning” (BMC Biology, 2022).
# Tested on: Escherichia coli TOP10
# Test: shrunken log2 fold change of peptide-encoding DNA abundance (4.5 h post-induction vs induction); higher = less antimicrobial activity (less host growth inhibition)
# Conditions: time post-induction: 4.5 h; library: site-saturation at positions 5, 18, 19, 20
# 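Note: peptides expressed intracellularly from a pBAD plasmid library in pooled LB shake-flask culture, induced with 0.3% L-arabinose, DNA abundance read by NGS, three biological replicates, DESeq2 with apeglm shrinkage.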
row,Sequence,shrunken log2 fold change
1,RRIRDRPPRLPRPRPRPFCCPRP,0.26
2,RRIRHRPPRLPRPRPRPIIQPRP,-0.348
3,RRIRIRPPRLPRPRPRPRECPRP,0.146
4,RRIRPRPPRLPRPRPRPNTGPRP,0.881
5,RRIRMRPPRLPRPRPRPGRMPRP,0.993
6,RRIRERPPRLPRPRPRPMRFPRP,-0.0231
7,RRIRMRPPRLPRPRPRPGAQPRP,1.24
8,RRIRSRPPRLPRPRPRPWLVPRP,0.0191
9,RRIRFRPPRLPRPRPRPGTWPRP,-0.153
10,RRIRCRPPRLPRPRPRPSHDPRP,-0.235
11,RRIRPRPPRLPRPRPRPHNYPRP,-0.631
12,RRIRHRPPRLPRPRPRPGWPPRP,0.424
13,RRIRMRPPRLPRPRPRPRIRPRP,0.79
14,RRIRNRPPRLPRPRPRPYWCPRP,-0.00264
15,RRIRCRPPRLPRPRPRPRWDPRP,-0.128
16,RRIRKRPPRLPRPRPRPFLEPRP,0.194
17,RRIRLRPPRLPRPRPRPHIQPRP,-0.341
18,RRIRPRPPRLPRPRPRPATMPRP,0.0647
19,RRIRIRPPRLPRPRPRPAHHPRP,-0.176
20,RRIRPRPPRLPRPRPRPTQSPRP,0.436
21,RRIRMRPPRLPRPRPRPRPDPRP,0.937
22,RRIRRRPPRLPRPRPRPYYIPRP,-0.584

row,Sequence,shrunken log2 fold change
1,RRIRIRPPRLPRPRPRPQQGPRP,-0.295
2,RRIRFRPPRLPRPRPRPHTFPRP,-0.778
3,RRIRQRPPRLPRPRPRPIMRPRP,0.0932
4,RRIRRRPPRLPRPRPRPICEPRP,0.356
5,RRIRCRPPRLPRPRPRPNYCPRP,-0.3
6,RRIRLRPPRLPRPRPRPWNWPRP,0.0524
7,RRIRCRPPRLPRPRPRPYRQPRP,0.00128
8,RRIRHRPPRLPRPRPRPDHWPRP,-0.0694
9,RRIRVRPPRLPRPRPRPYPRPRP,0.0644
10,RRIRQRPPRLPRPRPRPAILPRP,0.312
11,RRIRVRPPRLPRPRPRPASVPRP,0.0346
12,RRIRQRPPRLPRPRPRPAQTPRP,0.13
13,RRIRYRPPRLPRPRPRPYGMPRP,-0.438
14,RRIRGRPPRLPRPRPRPCFMPRP,0.0852
15,RRIRRRPPRLPRPRPRPNKQPRP,-0.00565
16,RRIRIRPPRLPRPRPRPNGSPRP,0.0061
17,RRIRQRPPRLPRPRPRPRVPPRP,0.339
18,RRIRCRPPRLPRPRPRPYFDPRP,-0.446
19,RRIRKRPPRLPRPRPRPGPPPRP,0.922
20,RRIRWRPPRLPRPRPRPEFRPRP,0.422
21,RRIRIRPPRLPRPRPRPYKRPRP,-0.0487
22,RRIRIRPPRLPRPRPRPGPVPRP,-0.0724

row,Sequence,shrunken log2 fold change
1,RRIRHRPPRLPRPRPRPAERPRP,0.0935
2,RRIRNRPPRLPRPRPRPAMCPRP,-0.199
3,RRIRCRPPRLPRPRPRPVPNPRP,-0.26
4,RRIRYRPPRLPRPRPRPEDWPRP,-0.252
5,RRIRYRPPRLPRPRPRPETTPRP,-0.289
6,RRIRCRPPRLPRPRPRPTECPRP,-0.168
7,RRIRTRPPRLPRPRPRPVGFPRP,-0.225
8,RRIRLRPPRLPRPRPRPHCGPRP,-0.22
9,RRIRVRPPRLPRPRPRPQDQPRP,0.225
10,RRIRVRPPRLPRPRPRPCQAPRP,-0.0137
11,RRIRSRPPRLPRPRPRPCCMPRP,-0.0571
12,RRIRIRPPRLPRPRPRPGTHPRP,-0.431
13,RRIRNRPPRLPRPRPRPRDFPRP,0.0201
14,RRIRRRPPRLPRPRPRPGQGPRP,0.278
15,RRIRCRPPRLPRPRPRPFQEPRP,-0.101
16,RRIRCRPPRLPRPRPRPHGDPRP,-0.0473
17,RRIRRRPPRLPRPRPRPCRIPRP,-0.0873
18,RRIRDRPPRLPRPRPRPDTIPRP,-0.0164
19,RRIRRRPPRLPRPRPRPTENPRP,0.464
20,RRIRFRPPRLPRPRPRPSTAPRP,-0.0915
21,RRIRMRPPRLPRPRPRPPHEPRP,0.445
22,RRIRDRPPRLPRPRPRPKMWPRP,0.123

row,Sequence,shrunken log2 fold change
1,RRIRCRPPRLPRPRPRPMHIPRP,-0.241
2,RRIRERPPRLPRPRPRPRCCPRP,-0.234
3,RRIRRRPPRLPRPRPRPTVQPRP,0.113
4,RRIRGRPPRLPRPRPRPITDPRP,0.0223
5,RRIRTRPPRLPRPRPRPHHFPRP,-0.0421
6,RRIRFRPPRLPRPRPRPFLNPRP,-0.484
7,RRIRQRPPRLPRPRPRPSNRPRP,-0.158
8,RRIRHRPPRLPRPRPRPVFWPRP,0.0698
9,RRIRVRPPRLPRPRPRPHCMPRP,-0.414
10,RRIRFRPPRLPRPRPRPKRGPRP,0.0365
11,RRIRDRPPRLPRPRPRPQCTPRP,0.191
12,RRIRQRPPRLPRPRPRPAHMPRP,-0.267
13,RRIRKRPPRLPRPRPRPRGEPRP,0.764
14,RRIRPRPPRLPRPRPRPWRKPRP,0.0228
15,RRIRIRPPRLPRPRPRPCQSPRP,-0.00131
16,RRIRMRPPRLPRPRPRPYDAPRP,0.11
17,RRIRERPPRLPRPRPRPACTPRP,-0.224
18,RRIRKRPPRLPRPRPRPSNNPRP,-0.0375
19,RRIRERPPRLPRPRPRPHIIPRP,-0.412
20,RRIRCRPPRLPRPRPRPGTFPRP,-0.0668
21,RRIRGRPPRLPRPRPRPKCKPRP,0.51
22,RRIRMRPPRLPRPRPRPLSTPRP,0.0164

row,Sequence,shrunken log2 fold change
1,RRIRMRPPRLPRPRPRPYKFPRP,0.0435
2,RRIRSRPPRLPRPRPRPNARPRP,-0.119
3,RRIRLRPPRLPRPRPRPYRKPRP,-0.262
4,RRIRFRPPRLPRPRPRPQPWPRP,0.334
5,RRIRRRPPRLPRPRPRPEYRPRP,-0.0195
6,RRIRDRPPRLPRPRPRPEQCPRP,-0.00146
7,RRIRNRPPRLPRPRPRPGRCPRP,0.143
8,RRIRRRPPRLPRPRPRPNTSPRP,-0.116
9,RRIRTRPPRLPRPRPRPSYFPRP,-0.85
10,RRIRFRPPRLPRPRPRPSKEPRP,1.3
11,RRIRLRPPRLPRPRPRPFSNPRP,-1.04
12,RRIRDRPPRLPRPRPRPNEKPRP,-0.0281
13,RRIRTRPPRLPRPRPRPKRFPRP,-0.00233
14,RRIRGRPPRLPRPRPRPEQDPRP,1.47
15,RRIRYRPPRLPRPRPRPCFGPRP,-0.0967
16,RRIRHRPPRLPRPRPRPSAMPRP,0.06
17,RRIRHRPPRLPRPRPRPWPRPRP,0.166
18,RRIRRRPPRLPRPRPRPSNYPRP,-0.169
19,RRIRSRPPRLPRPRPRPPLAPRP,0.812
20,RRIRLRPPRLPRPRPRPESGPRP,0.0315
21,RRIRNRPPRLPRPRPRPLGWPRP,0.367
